Data reported in FireProtDB (doi:10.1016/0167-4838(93)90045-s).

Settings: Carica papaya, Thermal, DSC, glycine 0.05M, reversible: No, whole UniProt chain shown

B1: Papain wild type, P00784 (protein)
chain: MAMIPSISKLLFVAICLFVYMGLSFGDFSIVGYSQNDLTSTERLIQLFESWMLKHNKIYKNIDEKIYRFEIFKDNLKYIDETNKKNNSYWLGLNVFADMSNDEFKEKYTGSIAGNYTTTELSYEEVLNDGDVNIPEYVDWRQKGAVTPVKNQGSCGSCWAFSAVVTIEGIIKIRTGNLNEYSEQELLDCDRRSYGCNGGYPWSALQLVAQYGIHYRNTYPYEGVQRYCRSREKGPYAAKTDGVRQVQPYNEGALLYSIANQPVSVVLEAAGKDFQLYRGGIFVGPCGNKVDHAVAAVGYGPNYILIKNSWGTGWGENGYIRIKRGTGNSYGVCGLYTSSFYPVKN
- Tm (pH 2.9): 60.3 °C
- unfolding enthalpy (calorimetric) (pH 2.9): 133 kcal/mol
- Tm (pH 3.8): 78.5 °C
- unfolding enthalpy (calorimetric) (pH 3.8): 198 kcal/mol
- Tm (pH 4.1): 81.8 °C
- unfolding enthalpy (calorimetric) (pH 4.1): 211 kcal/mol
